The data set concerns N[C@@H](CC(=O)c1ccccc1NC=O)C(=O)O. As to the kind of experiment: purified protein. The settings on record: pH 7.4; 25.0 °C.

The values that follow come from publication PMC4243253.

What is called Km is the concentration of substrate that gives half-maximal velocity. A word on the Vmax: it is the rate approached at saturating substrate. For orientation: kcat/Km means the second-order rate constant that governs catalysis at low substrate concentration. Consider BaKynB (Bacillus anthracis), for which the Km stood at 400 ± 50 µM, the maximal velocity (Vmax) amounted to 0.0654 µmol/min and the kcat/Km came to 126000 M⁻¹ s⁻¹.
